Results as given in patent publication US7037670B2, “Peptide substrates for assay of extracellular signal-regulated protein kinase 1 and 2 activity” (Board of Supervisors of Louisiana State University and …, priority 2002, dated 2006).
One block for each molecule: values may come before it. Ends that are not written are not given here.

Columns and labels:
[1] = target: ERK1 (Rattus norvegicus, UniProt P21708); test: Phosphorylation of substrates by purified, activated ERK1 (32P incorporation, P81 paper); type: biochemical; details: peptides 1 mM, MBP 20 μM, 10 min at 30° C., median of three determinations
Source text: Materials: Purified peptides were obtained from Sigma (St. Louis, Mo.) or custom synthesized by Louisiana State University Health Science Center Core Laboratories (New Orleans La.). Purified, activated ERK1 was a gift from Dr. M. H. Cobb (University of Texas Southwestern Medical Center, Dallas, Tex.). Purified, recombinant, activated ERK2 was a gift from Dr. N. G. Ahn (University of Colorado, Boulder, Colo.). Except as indicated below, other materials were purchased from Sigma. The new synthetic peptides modeled after Ser31 in human tyrosine hydroxylase are indicated.
(§1) ERK activity assays: Aliquots of supernatants or ERK1/2 immunoprecipitates (suspended in lysis solution) were mixed with substrate (1 mM final, unless stated otherwise) at 4° C. Phosphorylation reactions were initiated by addition of an equal volume of assay buffer containing [γ-^32P]ATP (NEN Life Sciences Products, now PerkinElmer Life Sciences, Boston, Mass.) and Mg^++ and allowed to proceed for 10 min at 30° C., after which duplicate 20 μl aliquots were spotted onto Whatman P81 paper. As would be predicted by the presence of multiple basic residues in the peptides, the ability of P81 paper to bind >90% of each of the peptides used in Tables 2 and 3 was confirmed by UV detection following RP-HPLC. The final reaction mixtures (50 μl) contained 50 mM β-glycerophosphate, 10 mM MgCl2, 1 mM EGTA, 1 mM dithiothreitol, 1 mM benzamidine, 0.1 mM ATP, 0.1 mM Na3VO4, 10 μM calmidazolium, 2 μM peptide inhibitor of cyclic AMP-dependent protein kinase ([…], SEQ ID NO: 24), 10 μg/ml leupeptin, and 0.025% Tween 20.
To test the effectiveness of various peptide substrates, peptide substrates were compared with myelin basic protein (“MBP,” SEQ ED NO: 1) for relative ability to be phosphorylated by purified ERK1 or ERK2. The ERK activity assay was as described above in Example 1. In Table 2, each value represents the median of three independent determinations, performed in duplicate. While all peptides were assayed at a concentration of 1 mM, MBP phosphorylation—given as a frame of reference at a concentration typically used in such assays—was assayed at 20 μM. ^32P incorporation into MBPtide (SEQ ID NO: 2) was 330 nmol/min/mg under the assay conditions used.

[2] = target: T1, ERK2 (Rattus norvegicus, UniProt P63086); test: Phosphorylation of TH Ser31-containing peptides by purified, recombinant, activated ERK2; type: biochemical; details: for RELATIVE 32P INCORPORATION (% 3.0 μmol/min/mg) Mean: mean of four determinations; for RELATIVE 32P INCORPORATION (% 3.3 μmol/min/mg): substrate 1 mM, median of three determinations
Source text: Materials: Purified peptides were obtained from Sigma (St. Louis, Mo.) or custom synthesized by Louisiana State University Health Science Center Core Laboratories (New Orleans La.). Purified, activated ERK1 was a gift from Dr. M. H. Cobb (University of Texas Southwestern Medical Center, Dallas, Tex.). Purified, recombinant, activated ERK2 was a gift from Dr. N. G. Ahn (University of Colorado, Boulder, Colo.). Except as indicated below, other materials were purchased from Sigma. The new synthetic peptides modeled after […] in human tyrosine hydroxylase are indicated. ERK activity assays: Aliquots of supernatants or ERK1/2 immunoprecipitates (suspended in lysis solution) were mixed with substrate (1 mM final, unless stated otherwise) at 4° C. Phosphorylation reactions were initiated by addition of an equal volume of assay buffer containing [γ-^32P]ATP (NEN Life Sciences Products, now PerkinElmer Life Sciences, Boston, Mass.) and Mg^++ and allowed to proceed for 10 min at 30° C., after which duplicate 20 μl aliquots were spotted onto Whatman P81 paper. As would be predicted by the presence of multiple basic residues in the peptides, the ability of P81 paper to bind >90% of each of the peptides used in Tables 2 and 3 was confirmed by UV detection following RP-HPLC. The final reaction mixtures (50 μl) contained 50 mM β-glycerophosphate, 10 mM MgCl2, 1 mM EGTA, 1 mM dithiothreitol, 1 mM benzamidine, 0.1 mM ATP, 0.1 mM Na3VO4, 10 μM calmidazolium, 2 μM peptide inhibitor of cyclic AMP-dependent protein kinase ([…] ID NO: 24), 10 μg/ml leupeptin, and 0.025% Tween 20. Table 3 indicates the relative phosphorylation of TH-[…]-containing peptides by purified ERK2. […] These new substrates were assayed for the relative phosphorylation by purified ERK2 similar to the experiments that generated Table 3.

[3] = target: T1, ERK2; test: Steady-state kinetic analyses of peptide substrates for ERK2; type: biochemical; details: median of three determinations
Method: as §1
In Table 5, each value represents the median of three independent determinations, performed in duplicate. […] See I. Kameshita et al., 1997. […] 355, pp. 5641-5646 (1996); see also C. N. Prowse et al., “Catalytic reaction pathway for the mitogen-activated protein kinase ERK2,” Biochem., vol. 39, pp. 6258-6266 (2000).

[4] = tested on: ERK1/2; test: In vitro kinase assay on PC12 cellular extracts with no further purification (with and without nerve growth factor); type: biochemical, rat; details: for pattern and degree of ERK activation over time compared with ERK immunoprecipitation and blot immunolabeling assays: PC12 cells with and without NGF, up to 480 min, extracts without purification
Method: Cells were treated with or without added 100 ng/ml 7S nerve growth factor for up to 8 h. One group of cells was harvested for blot immunolabeling and solubilized with sodium dodecyl sulfate solution, as described in J. W. Haycock, “Multiple forms of tyrosine hydroxylase in human neuroblastoma cells: Quantitation with isoform-specific antibodies,” J. Neurochem., vol. […] A second group of cells was harvested for kinase assays and subjected to trituration in an ice-cold lysis solution of 50 mM β-glycerophosphate, 1 mM EGTA, 1 mM dithiothreitol, 1 mM benzamidine (Eastman Kodak Co., Rochester, N.Y.), 0.1 mM Na3VO4, 10 μg/ml leupeptin, and 0.05% Tween 20. Supernatants from the latter samples were generated by sonication and centrifugation (20 min at 10,000×g) in a refrigerated centrifuge (Savant, Farmingdale, N.J.). In some experiments, ERK1/2 was isolated prior to assaying kinase activity by immunoprecipitation of the PC12 cellular extracts with anti-pan ERK1/2 and protein A-Sepharose. […] ERK activity assays: Aliquots of supernatants or ERK1/2 immunoprecipitates (suspended in lysis solution) were mixed with substrate (1 mM final, unless stated otherwise) at 4° C. Phosphorylation reactions were initiated by addition of an equal volume of assay buffer containing [γ-^32P]ATP (NEN Life Sciences Products, now PerkinElmer Life Sciences, Boston, Mass.) and Mg^++ and allowed to proceed for 10 min at 30° C., after which duplicate 20 μl aliquots were spotted onto Whatman P81 paper. […] Experiments were conducted to test the ability of different substrates to assay for activation of ERK1/2 in situ. […] Cells were harvested and-assayed for ERK1/2 activity by various methods.

[5] = target: T1, ERK2; details: stated for MBP protein as contrast to the peptides; cited from earlier work

T1 sequence (P63086 2-358 limits assumed): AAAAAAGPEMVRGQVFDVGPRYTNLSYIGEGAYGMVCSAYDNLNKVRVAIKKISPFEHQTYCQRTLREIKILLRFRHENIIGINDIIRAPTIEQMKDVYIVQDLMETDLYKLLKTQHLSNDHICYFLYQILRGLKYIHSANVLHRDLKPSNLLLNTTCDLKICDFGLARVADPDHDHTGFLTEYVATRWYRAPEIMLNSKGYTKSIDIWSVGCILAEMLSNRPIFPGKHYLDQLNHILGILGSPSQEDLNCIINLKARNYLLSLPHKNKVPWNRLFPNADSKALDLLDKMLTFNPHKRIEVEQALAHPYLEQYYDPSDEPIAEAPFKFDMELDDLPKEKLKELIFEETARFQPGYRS
Chain of ERK1 (P21708 2-380 limits assumed): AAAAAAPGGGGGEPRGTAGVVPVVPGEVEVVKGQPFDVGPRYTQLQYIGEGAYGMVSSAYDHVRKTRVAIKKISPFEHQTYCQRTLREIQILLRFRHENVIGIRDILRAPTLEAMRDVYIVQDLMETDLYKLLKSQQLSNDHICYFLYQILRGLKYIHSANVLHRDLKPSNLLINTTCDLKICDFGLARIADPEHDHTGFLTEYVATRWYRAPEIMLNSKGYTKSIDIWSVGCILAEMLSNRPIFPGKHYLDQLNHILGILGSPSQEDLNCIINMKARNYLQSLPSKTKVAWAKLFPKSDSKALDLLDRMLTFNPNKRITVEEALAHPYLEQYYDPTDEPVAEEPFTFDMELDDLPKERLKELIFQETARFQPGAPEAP

RELATIVE 32P INCORPORATION (% OF MBP) [1]: <1 % OF MBP
Molecule: PTPSAPSPQPK (This sequence is TH (rat) Ser8.) [SEQ ID NO: 4]

RELATIVE 32P INCORPORATION (% 3.0 μmol/min/mg) Mean [2]: 107 % 3.0 μmol/min/mg
Molecule: QAEAIMSPRFGRR-NH2 [SEQ ID NO: 15]

RELATIVE 32P INCORPORATION (% 3.0 μmol/min/mg) Mean [2]: 182 % 3.0 μmol/min/mg
Molecule: QATGPLSPGFRR-NH2 [SEQ ID NO: 19]

RELATIVE 32P INCORPORATION (% 3.0 μmol/min/mg) Mean [2]: 143 % 3.0 μmol/min/mg
Molecule: QATGPLSPGPFRR-NH2 [SEQ ID NO: 17]

RELATIVE 32P INCORPORATION (% OF MBP) [1]: <1 % OF MBP
Molecule: RRAVSEQDAK (This sequence is TH (rat) Ser19.) [SEQ ID NO: 5]

RELATIVE 32P INCORPORATION (% OF MBP) [1]: 13 % OF MBP
Molecule: RRELVEPLTPSGEA (This sequence is EGF Receptor (Thr669).) [SEQ ID NO: 3]

RELATIVE 32P INCORPORATION (% 3.3 μmol/min/mg) [2]: 1 % 3.3 μmol/min/mg
Molecule: YIMVRGQSPR (This sequence is based on TH-Ser31 type 2 HUMAN.) [SEQ ID NO: 21]

RELATIVE 32P INCORPORATION (% 3.0 μmol/min/mg) Mean [2]: 117 % 3.0 μmol/min/mg | RELATIVE 32P INCORPORATION (% 3.3 μmol/min/mg) [2]: 100 % 3.3 μmol/min/mg
Molecule: YQAEAIMSPRFIGRR-NH2 [SEQ ID NO: 14]

Kmin(app) [3]: 1.0 mM | pattern and degree of ERK activation over time compared with ERK immunoprecipitation and blot immunolabeling assays [4]: faithfully reproduced | RELATIVE 32P INCORPORATION (% 3.0 μmol/min/mg) Mean [2]: 100 % 3.0 μmol/min/mg | RELATIVE 32P INCORPORATION (% 3.3 μmol/min/mg) [2]: 80 % 3.3 μmol/min/mg
Molecule: YQAEAIMSPRFIGRRQ (This sequence is new and based on TH-31 type 1 HUMAN.) [SEQ ID NO: 13]

RELATIVE 32P INCORPORATION (% 3.0 μmol/min/mg) Mean [2]: 215 % 3.0 μmol/min/mg
Molecule: YQATGPLSPGFRR-NH2 [SEQ ID NO: 18]

RELATIVE 32P INCORPORATION (% 3.0 μmol/min/mg) Mean [2]: 164 % 3.0 μmol/min/mg
Molecule: YQATGPLSPGPFRR-NH2 [SEQ ID NO: 16]

RELATIVE 32P INCORPORATION (% OF MBP) [1]: 100 % OF MBP | pattern and degree of ERK activation over time compared with ERK immunoprecipitation and blot immunolabeling assays [4]: differed | levels of protein kinase activity in cellular extracts ([4]; PC12 extracts, no kinase purification, EGTA, calmidazolium, cAMP-dependent protein kinase inhibitor present): Higher levels of protein kinase activity
B1: . . . KNIVTPRTPPPS . . . (protein, listed as Bos taurus)
chain: AAQKRPSQRSKYLASASTMDHARHGFLPRHRDTGILDSLGRFFGSDRGAPKRGSGKDGHHAARTTHYGSLPQKAQGHRPQDENPVVHFFKNIVTPRTPPPSQGKGRGLSLSRFSWGAEGQKPGFGYGGRASDYKSAHKGLKGHDAQGTLSKIFKLGGRDSRSGSPMARR
Km [5]: 10 to 50 µM
